From patent US20250145684A1 (IMMATICS BIOTECHNOLOGIES, published 2025) come the findings set out here.

This test addresses T1, HLA-B*08:01 (human).
T1 construct: MHC monomer first loaded with a UV-sensitive peptide that is cleaved by UV light and exchanged for the test peptide
Nature of the test: UV peptide exchange ELISA. An excerpt:
Candidate peptides for T cell based therapies according to the present invention were further tested for their MHC binding capacity (affinity). The individual peptide-MHC complexes were produced by UV-ligand exchange, where a UV-sensitive peptide is cleaved upon UV-irradiation and exchanged with the peptide of interest as analyzed. Only peptide candidates that can effectively bind and stabilize the peptide-receptive MHC molecules prevent dissociation of the MHC complexes. To determine the yield of the exchange reaction, an ELISA was performed based on the detection of the light chain (β2m) of stabilized MHC complexes. The assay was performed as generally described in Rodenko et al. (Rodenko et al., 2006).
96 well MAXISorp plates (NUNC) were coated over night with 2 ug/ml streptavidin in PBS at room temperature, washed 4× and blocked for 1 h at 37° C. in 2% BSA containing blocking buffer. Refolded HLA-A*02:01/MLA-001 monomers served as standards, covering the range of 15-500 ng/ml. Peptide-MHC monomers of the UV-exchange reaction were diluted 100-fold in blocking buffer. Samples were incubated for 1 h at 37° C., washed four times, incubated with 2 ug/ml HRP conjugated anti-β2m for 1 h at 37° C., washed again and detected with TMB solution that is stopped with […]. Absorption was measured at 450 nm. Candidate peptides that show a high exchange yield (preferably higher than 50%, most preferred higher than 75%) are generally preferred for a generation and production of antibodies or fragments thereof, and/or T cell receptors or fragments thereof, as they show sufficient avidity to the MHC molecules and prevent dissociation of the MHC complexes.
(An ELISA detects its analyte on a solid surface through an enzyme-linked reagent.)
Turning to YPLLKDPSL [YPLLKDPSL (SEQ ID NO: 173)], the peptide exchange yield was in the range of 50 to 75%. In the case of VAAARAVPV [VAAARAVPV (SEQ ID NO: 200)] it was 20 to 50%. With YVIQRQSVL [YVIQRQSVL (SEQ ID NO: 176)] the figure was 20 to 50%; with ILHLSAIAL [ILHLSAIAL (SEQ ID NO: 182)], at least 75%. TASAMQHVL [TASAMQHVL (SEQ ID NO: 201)] registered a peptide exchange yield of 50 to 75%. In the case of LLILKTVL [LLILKTVL (SEQ ID NO: 17)] it was 50 to 75%; in that of LPAPIPTLL [LPAPIPTLL (SEQ ID NO: 164)], 20 to 50%; in that of RAIEHVLQV [RAIEHVLQV (SEQ ID NO: 194)], 50 to 75%.

With LGGLRLTAL [LGGLRLTAL (SEQ ID NO: 193)], the peptide exchange yield was 20 to 50%. In the case of RIPEKASFL [RIPEKASFL (SEQ ID NO: 202)] it was 20 to 50%; in that of IPRLAVISI [IPRLAVISI (SEQ ID NO: 178)], 20 to 50%; in that of IPFIHLPEI [IPFIHLPEI (SEQ ID NO: 199)], 20 to 50%.

Regarding VLSGGRILAL [VLSGGRILAL (SEQ ID NO: 166)], the peptide exchange yield is 20 to 50%.

PYEKVSRL [PYEKVSRL (SEQ ID NO: 172)]: the peptide exchange yield was in the range of 20 to 50%.

The molecule LPINNTHI [LPINNTHI (SEQ ID NO: 160)] gave a peptide exchange yield of 20 to 50%. The molecule LSLVRKAL [LSLVRKAL (SEQ ID NO: 18)] showed a peptide exchange yield of 50 to 75%. With SVPVRSSPL [SVPVRSSPL (SEQ ID NO: 177)] the figure was 20 to 50%. In the case of LAVPIFVAL [LAVPIFVAL (SEQ ID NO: 180)] it was 20 to 50%. For the molecule YMQYGFLSM [YMQYGFLSM (SEQ ID NO: 205)], the peptide exchange yield fell in the range of 20 to 50%.

Molecule DMKITVSL [DMKITVSL (SEQ ID NO: 167)] gave a peptide exchange yield of 50 to 75%. In the case of LRKRKSPE [LRKRKSPE (SEQ ID NO: 207)] it was 20 to 50%; in that of DIVPPFSAF [DIVPPFSAF (SEQ ID NO: 161)], 20 to 50%. With LPPPQPLSL [LPPPQPLSL (SEQ ID NO: 208)] the figure was 20 to 50%. In the case of ILKRFLAC [ILKRFLAC (SEQ ID NO: 20)] it was 50 to 75%; in that of DVYTQVSAF [DVYTQVSAF (SEQ ID NO: 203)], 20 to 50%; in that of LFKQTKINL [LFKQTKINL (SEQ ID NO: 162)], 20 to 50%.

With FTLLRRLSL [FTLLRRLSL (SEQ ID NO: 19)], the peptide exchange yield fell in the range of 50 to 75%. With EEKHFTTL [EEKHFTTL (SEQ ID NO: 192)] the figure was 20 to 50%; with EVMAQFKEI [EVMAQFKEI (SEQ ID NO: 163)], 20 to 50%; with EIMEKTTL [EIMEKTTL (SEQ ID NO: 188)], 20 to 50%. With MEFPNKFNTL [MEFPNKFNTL (SEQ ID NO: 206)] the figure was 20 to 50%; with QPYRFPQA [QPYRFPQA (SEQ ID NO: 157)], 20 to 50%; with HVQDFTAF [HVQDFTAF (SEQ ID NO: 168)], 20 to 50%.

Molecule VPYNSVLF [VPYNSVLF (SEQ ID NO: 187)] yielded a peptide exchange yield of 20 to 50%. In the case of DVIIKGNGL [DVIIKGNGL (SEQ ID NO: 158)] it was 20 to 50%; in that of FPSQVPKQVL [FPSQVPKQVL (SEQ ID NO: 171)], 20 to 50%. With DLISPRQPRL [DLISPRQPRL (SEQ ID NO: 186)] the figure was 20 to 50%; with LPLTEHEL [LPLTEHEL (SEQ ID NO: 179)], 50 to 75%; with SIRSSYSRF [SIRSSYSRF (SEQ ID NO: 181)], 20 to 50%. In the case of LDLRQKVL [LDLRQKVL (SEQ ID NO: 196)] it was 20 to 50%; in that of DRLKPLKM [DRLKPLKM (SEQ ID NO: 184)], 20 to 50%; in that of EGNQKSVI [EGNQKSVI (SEQ ID NO: 195)], 20 to 50%.

For MRFQQFLFA [MRFQQFLFA (SEQ ID NO: 175)], the peptide exchange yield is 10 to 20%. With APDNVLLTL [APDNVLLTL (SEQ ID NO: 189)] the figure was 20 to 50%. In the case of YKAYPSQL [YKAYPSQL (SEQ ID NO: 197)] it was 20 to 50%. In turn, ELLNRIYF [ELLNRIYF (SEQ ID NO: 190)] displayed a peptide exchange yield of 20 to 50%.

As for NRKPRTPF [NRKPRTPF (SEQ ID NO: 16)], the peptide exchange yield lay within 20 to 50%. In the case of DVISKGVSL [DVISKGVSL (SEQ ID NO: 211)] it was 20 to 50%; in that of SPANVRGQSL [SPANVRGQSL (SEQ ID NO: 170)], 20 to 50%; in that of QPNTHQLL [QPNTHQLL (SEQ ID NO: 210)], 20 to 50%. In the case of SRFGKFVQL [SRFGKFVQL (SEQ ID NO: 209)] it was 20 to 50%. In the case of YVSKPGAQL [YVSKPGAQL (SEQ ID NO: 183)] it was 20 to 50%; in that of YELNNLHAL [YELNNLHAL (SEQ ID NO: 169)], 20 to 50%; in that of MSPLLRSI [MSPLLRSI (SEQ ID NO: 204)], 20 to 50%.

As for RILKRFLAC [RILKRFLAC (SEQ ID NO: 21)], the peptide exchange yield lay in the range of 50 to 75%. In the case of MELKTVKPI [MELKTVKPI (SEQ ID NO: 185)], the peptide exchange yield lay within 20 to 50%.

For FPLTSIIAI [FPLTSIIAI (SEQ ID NO: 198)], the peptide exchange yield is 50 to 75%. The molecule QNSLRHNL [QNSLRHNL (SEQ ID NO: 165)] registered a peptide exchange yield of 20 to 50%.

Take HAMPSPRIL [HAMPSPRIL (SEQ ID NO: 174)]: the peptide exchange yield was 20 to 50%. With DLRNKIIA [DLRNKIIA (SEQ ID NO: 159)] the figure was 20 to 50%.

The molecule QIMPKAGL [QIMPKAGL (SEQ ID NO: 2)] had a peptide exchange yield of 50 to 75%.

RPLKPGEVL [RPLKPGEVL (SEQ ID NO: 191)] yielded a peptide exchange yield of 20 to 50%.
